Measured values taken from article PMC5540154.

Target: D. melanogaster Isu (fIscU) (D. melanogaster) (UniProt Q9VHK6)
Experiment: SEC

stoichiometry N: 2
Substance: D. melanogaster Isu (fIscU) (from UniProt Q9VHK6 1-154) (natural protein)
